Test results taken from paper PMC9958104, “Arabidopsis histone H3 lysine 9 methyltransferases KYP/SUVH5/6 are involved in leaf development by interacting with AS1-AS2 to repress KNAT1 and KNAT2” (Communications Biology, 2023).

B2: maltose-binding protein (MBP) fused AS1 (MBP-AS1) (natural protein, Arabidopsis thaliana, UniProt O80931 1-367, looked up)
chain: MKERQRWSGEEDALLRAYVRQFGPREWHLVSERMNKPLNRDAKSCLERWKNYLKPGIKKGSLTEEEQRLVIRLQEKHGNKWKKIAAEVPGRTAKRLGKWWEVFKEKQQREEKESNKRVEPIDESKYDRILESFAEKLVKERSNVVPAAAAAATVVMANSNGGFLHSEQQVQPPNPVIPPWLATSNNGNNVVARPPSVTLTLSPSTVAAAAPQPPIPWLQQQQPERAENGPGGLVLGSMMPSCSGSSESVFLSELVECCRELEEGHRAWADHKKEAAWRLRRLELQLESEKTCRQREKMEEIEAKMKALREEQKNAMEKIEGEYREQLVGLRRDAEAKDQKLADQWTSRHIRLTKFLEQQMGCRLDRP
notes: source: E. coli BL21(DE3), recombinant protein

Experiments:
[1] = molecular target: B2; test: quartz crystal microbalance (QCM); AffinixQN QCM biosensor; first protein immobilised on the Au electrode until saturation (AS1 for the AS1-KYP pair), second protein injected repeatedly; 50 mM Tris-HCl, 150 mM NaCl, 1 mM DTT, 25 °C; Langmuir equation; three replicates; settings: both partners purified
[2] = molecular target: T1, MBP-KYP recombinant protein (Arabidopsis thaliana, UniProt Q8GZB6 1-624); test: as above; settings: both partners purified
T1 construct: KRYPTONITE (KYP/SUVH4), Arabidopsis thaliana; KYP CDS cloned into the pMAL-c5v vector; The purification is not described; source: E. coli BL21(DE3), recombinant protein
T1 sequence (looked up): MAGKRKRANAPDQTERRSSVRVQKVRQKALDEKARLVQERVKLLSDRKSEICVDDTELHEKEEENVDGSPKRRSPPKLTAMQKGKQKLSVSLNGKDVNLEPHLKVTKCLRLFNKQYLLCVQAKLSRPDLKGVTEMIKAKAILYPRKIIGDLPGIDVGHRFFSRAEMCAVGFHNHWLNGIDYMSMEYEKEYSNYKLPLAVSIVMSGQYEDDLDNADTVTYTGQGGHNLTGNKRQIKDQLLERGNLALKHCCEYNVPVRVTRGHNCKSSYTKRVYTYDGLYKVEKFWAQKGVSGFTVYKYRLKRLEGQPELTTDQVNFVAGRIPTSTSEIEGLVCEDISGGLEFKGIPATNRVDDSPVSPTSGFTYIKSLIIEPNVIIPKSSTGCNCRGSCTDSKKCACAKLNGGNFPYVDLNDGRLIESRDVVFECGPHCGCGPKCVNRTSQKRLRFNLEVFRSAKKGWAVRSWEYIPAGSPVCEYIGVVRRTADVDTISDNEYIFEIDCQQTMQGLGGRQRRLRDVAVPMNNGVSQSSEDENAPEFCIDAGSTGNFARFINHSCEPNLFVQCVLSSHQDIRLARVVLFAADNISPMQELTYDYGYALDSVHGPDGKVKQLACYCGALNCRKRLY

B1: maltose-binding protein (MBP) fused AS2 (MBP-AS2) (natural protein, Arabidopsis thaliana, UniProt O04479 1-199, looked up)
chain: MASSSTNSPCAACKFLRRKCQPECVFAPYFPPDQPQKFANVHKVFGASNVTKLLNELHPSQREDAVNSLAYEADMRLRDPVYGCVGVISLLQHQLRQLQIDLSCAKSELSKYQSLGILAATHQSLGINLLAGAADGTATAVRDHYHHHQFFPREQMFGGLDVPAGNNYDGGILAIGQITQFQQPRAAAGDDGRRTVDPS
notes: as for B2
- Kd [1]: 25.3 µM
- Kd [2]: 18.6 µM

Binder: B2
- Kd [2]: 33.6 µM
